Reference: the DeepSol protein solubility set

Assay: soluble on expression in E. coli; label from the status in PepcDB or PDB records

Sequence | soluble on expression in E. coli
TVQTQDKVTAMDKDPKVTVDVTGYQWNWKFGYAKVAGELSPTGSDYVGTDEKRQEAAEKTKFDQGGDNPNPINGRSKTDTSYLHFNKIETLGTSEEIPV | not soluble
MSPIDEFTYIKQNKIVYDSNSLIQLYFPIMGSDAMALYDYFVHFFDDGIRRHKFSEVLNHLQYGMPRFQDALVMLTALDLLTVYQATGTYLVKLNQAMSNELFLSNPIYRRLLEKRIGEVAVAELDMKIPKNARDISKKFTDVFSDLGQPKQEVNRSKNVFDLESFKRLMMRDGLRFNNEKDDVLGIYSVSELYHLNWYDTYQLAKQTAINGMIAPQRMKVQQNEGQHIKDNQSFTNNEKVILRESKNDSALVFLEKIKRSRKAVTTSGEKTLLEDLAKMNFLDEVINVMVLYTLNKTKSANLNKAYIMKVANDFAFQNVMTAEDAVLKIRDFSDQKVRTKTETKKKQSNVPEWSNPDYKDEVSPEKEIELEQFKTDALKRLERLGKDGES | not soluble
MGSDKIHHHHHHMNTLVLPKTQHLVVFQEVIRSGSIGSAAKSLGLTQPAVSKIISDVEAYFGVELIVRKNTGVTLTEAGQVLLSWSESITREMKNMINEMNSMTCNTVVDVSFGFPSLIGFTFMSDMIHKFKEVFPKAQVSMYEAQLSSFLPALRDGRLDFAIGTLSNEMQLQDLHVEPLFESEFVLVASKSRTCTGTITLESLKDEQWVLPQTNMGYYSELLTTLQRNGISIENIVKTDSVVTIYNLVLNADFLTVIPCDMTTPFGSNQFITIPIQDTLPVARYAAVWSKNYRIKKAASVLVELAKQYSSYNGCRRRQLIEIE | not soluble
SLGFIMKLTKTALCTALFATFTFSANAQTYPDLPVGIKGGTGALIGDTVYVGLGSGGDKFYTLDLKDPSAQWKEIATFPGGERNQPVAAAVDGKLYVFGGLQKNEKGELQLVNDAYRYNPSDNTWMKLPTRSPRGLVGSSGASHGDKVYILGGSNLSIFNGFFQDTVAAGEDKAKKDEIAAAYFDQRPEDYFFTTELLSYEPSTNKWRNEGRIPFSGRAGAAFTIQGNELVVVNGEIKPGLRTAETHQGKFTAKGVQWKNLPDLPAPKGKSQDGLAGALSGYSNGHYLVTGGANFPGSIKQFKEGKLHAHKGLSKAWHNEVYTLNNGKWRIVGELPMNIGYGFSVSYNNKVLLIGGETDGGKALTSVKAISYDGKKLTIE | not soluble
MFTLRELPFAKDSMGDFLSPVAFDFHHGKHHQTYVNNLNNLIKGTDFEKSSLFAILTKSSGGVFNNAAQIYNHDFYWDCLSPKATALSDELKGALEKDFGSLEKFKEDFIKSATTLFGSGWNWAAYNLDTQKIEIIQTSNAQTPVTDKKVPLLVVDVWEHAYYIDHKNARPVYLEKFYGHINWHFVSQCYEWAKKEGLGSVDYYINELVHKKL | soluble
MKKLLVIRNDKIGDFMLCFPAFMMLKQSMPNIEITALVPNYTAPLAELCPAIDHLIIDNTDKQDPIAFKQVQQAVQNGQFDAVICFVSSWYNAKLTWQSGIRYRLAPATKLFQFLYNHRLTQRRSQSIKAESEYNLDLARAFLIDHHMMPVEPQLEHHHHHH | soluble
MGSDKIHHHHHHMAESKTKRLLYFMSELEKGNQINKEEYIAKFNISDRTMKEDVSELKTNLKELRPNMQIKFSRKHACYFASYEQGYGNLKYNQAVILSKILLESRALRKEEVAEIINIFVERAVDDKERTRIKKLTQFELNSYQELKFYQKSNKSILPTISAIFDAIVDQRPLAFSYTKPSSKVEEYIVLPISVIFDNHYFYCISYKLDNCFQSRYELQELRYFRVDRFKTIHKSISNSAFALTEEEQERLITDEQVRYQTFSMLSDQKWVRIQFRYTGQFRDVLEADIPKLKMINELEEGIIYEIETLSLLGFQKYIQRFDGDFVFLNIKSIKK | not soluble
MGHHHHHHSHMWSSREIEDLGLTFAIAIDKGKETNTEKELKEEGGSYPKKDNITLTYQFVNEKAAGAGTSGGGGSGQGAQKAYINISETGDSLQQIGSEVALRRDREVFSPHLKVVVMSEDVLHTFPIDEMLDQFFRDNEIRLSCLVLSAKGEARDALQLKENGEIPAFRLIGLGENEHKVSRILPPMTLAKLIGKLHSGSSFLLQNVVAANGAVKYSGAAVINGKSKKMIGTLNEYETEGITWIRGEGKGGVVKSHDKKSQQTLAYDINKIKSRIQPIVKGKDISFHVDIESEGDLVENWNTKEALDTQFIDRLETTIENEVKKIVGQVLKKIQHDYKADVAGFDESFRLTYPHLWKRVKNNWDDTFSKADITYSVNVTITHFGTVKTQ | soluble
MAKVLVLGGGIGGTEAAIALRKEGFEVSLVSDKPYLYIYPISIWIPTGEAKFEDVIIPLDKFARRWGVNLIIDRVEKIDAQNKKVHLKSGKVLEDFDYLVVALGQTKRKEKGLENTLSICGSPEEALKIRDRLVELIAKGEGKIAFGFGGNPKDKTAVRGRPVFEVLFNVDYHLSRLGIRDRFELTFFAPMPKPGERLGEKALKMLDQMFQKYGIKKITGKKIKEFKENGVLFEDDTFLESDLIIYTPAGWGNPVFADSGFPLNEAGFIKIEETCQVVGYEWAYAIGDSAAIEGPPWTAKQGHLAEVMGHITAHNIAVKEGKKSGELKSYKEHINILCLMDMGWRGGGFAYRSDKRAMLIPIPVLGHIMKKAWGVYYKLYKLGKIPKII | not soluble
MSLAQGANAPLNIPANPQMFGTNDPNVRRATAIVNGEIITGTDVEQRLALIVSANGGKIDGEEKERLRMQVLRNLIDETLQIQEAKAADVPADDGQVDASYERVATQNFGQSADALEKYLARIGSSAASLKRQIRGEIAWQNLLRRNVQPFVNVSEGEVQEAMQRLQASKGTEEYRIGEIFLAATEENKPQVFANAEKIVEQLKQGGSFVAYARQYSEASTAAVGGDLGWIRLAQLPTELATTAASMGPGQLAGPVEIRGGFSILYLIDKREGHHHHHH | soluble
MECLKAEFFSPIALFKTPFSIKGIETYPLPPYSTVIGLLYTASGKKWKGERFNISVQGDYEAIFRDYVRFRKYNKKDKKLETLPLEVPLFYNFRLTVHILGDENLLKEFEKALKFPYVFPYLSGGEYPVKITKVKMVACRKEYFDTFNIPKNAYIPENIFTEEFRVSLEGHGVYYRVPSFLISQKPRQHEWVGVYYVQKGTKVSEMELLVDEEGEPVWV | soluble
MARLTAYERRKFRVRNRIKRTGRLRLSVFRSLKHIYAQIIDDEKGVTLVSASSLALKLKGNKTEVARQVGRALAEKALALGIKQVAFDRGPYKYHGRVKALAEGAREGGLEF | soluble
MGSDKIHHHHHHQTAEPPKTVRPDQLAFRDLYKELVEINTTLSVGSCTAASEAMGARLKAAGFPEADVRVVVEPKHPREGNLVAVLRGTDATTKPMLLLAHIDVVEAKREDWTRDPFKLVEENGYFYGRGTSDDKAQAAIWVDSLIRLKQAGFKPKRDIKMALTCGEESEGYNGIEDLLKNHRPLVDAEFALNEGASGLLDEQGKAVMLEVQAGEKVYQDFTLTVTNPGGHSSRPVSPNAIYQLSAALDRIGAYQFPPRFNDATRGYFTQMQARVTPEQAAAMKTLVADVNDPAALALITKDRTWNSMLRTTCVATMVSAGHAPNALPQRATANINCRILPGTPIDEVKAKLTELAADPAVAVTLAHSSKPASPPPPLTPAIMAPIQKNAAKLWPGVPILPVMSTGATDAVHTSAAGIPTYGVTGLFHGPEGTGAHGLNERMRVKSLYEGRDFLHGLIQDYAGGK | not soluble
MLLKPEEYIERLGEYKRDIYVLGKKIEDFVNHPNIRPTVEAMAYTYSIAEKYAPHSELVGEKVNRLNYVNQTFEDLIARYDYQRELSLKLATCNYRCTGCDAINAIYPATKALDEREGTDYHRRFLELLKEIQKKDYACTAALTDVKGDRGKRPSEQKDKYLRVVEKREDGIVVRGAKICQSGAFAADVNFVLPTQTFRPGEEEFAVVFAAMPEDEGIKYILQNTGIQAKQREGGKFEAGNKYGDRTTCMVVFDDVFIPWERVFVFEDLKAARDVVSYFAPSHRCVGAACKAGFIDSMAGAASLMLKTSGLENVSALQQKVAEMVAVSEGAFAISVGAAVKGANHNGCWLPNFQMANSGKVIGVEGFAKALMNLIDISGGIIGTSPSEFDLEMVGDFLRASEKFTAEQRLKIVKFIEFWTTSSHLVGAFHGGGSPTAALITLRFLMDLSSREEAVKNCIDF | not soluble
MWRLIYSLLFLIPGAAMAGAQVYEPLSASTRTVLHRTISDQAVPMLVTLPGPEAKDWLDSMTKRLEKRISDIEERRAFLITVHYEATRAGLDPELVLSIIQVESNFRKYAVSSAGARGYMQVMPFWVDTIGNPEHNLFHLRVNLRYGCTILRHYLDLEQGDYFRALGRYNGSLGKAGYPNLVFNAWHRHWTYSTASQ | not soluble
MGSDKIHHHHHHMWGPPWMPDQDGNMTRESGYFQCTNRNKYSVAVDITTPEGQALIYEIAKTADVVIENYKTGSLAKYGLDYASLSELNPNIVYCSITGFGQDGPRAEEPGYDFIIQGMSGLMSITGEPDDVAGGGAQKVGVAVVDIQTGLYSTIAIQAALIARSHTGRGQYIDMSLLDVQVAALANQGMNYLASGKAPQRMGNQHPSIVPYQTFKAKDKEFIIACGNDKQFKDLCIAIGYPELLENEKFVRNQDRVKYRNELIPLLSEHFLRKTAKEWVDMIHALKVPVGVINSIEDALAEPQIVYRNLVVNIPHRLNENFQTIGSPIKLSDTPVEYHHAPPELGEHTAQILSRFKTAEELAALKEKGIIDGKIA | not soluble
TKDFTWTTDFNIAFNNNKITSYPQKEEVVGTKIRTVGYSIYEFYMQEWAGVDPVNGDPLWYMDVTDDKGNPTGERTTTNTYSKATKYKLGSALPSATGGLTNTVSWKGVDFSFMFTYGFGGKIYDVYEENLLNDGNKTGYQLITEQADSWTPENTNASNPKFIPNNSNTSNGRSSRYLHNADFIKLKNISLGYSLPKSLIKKNLLQNVRIYVSADNLITWNLDKKFKSYDVELGGVDGLLDGGGTVPLARTFTAGINLTF | not soluble
MGSDKIHHHHHHMKLGLLTAPFAETPLADVAAWASSAGFEALEIACWPKTSGATRRYAGTSHIDAASTSPAQAKEITASLAEKHLTISGLGYYPNPLHPDAAHREAVIGHLKKVIELAANMGVPVVNTFCGGDASKTVDVNWQDALKVWPEIVAFARGHGIKLAFENCPMIFSYDEWPGGHNIAYSPQVWRRILETWGGDIGMNFDPSHLVWQMIDQARFIREFGPYMLHVHAKDLMIDHDGLYERGILSAGIGWQVPRMPGLGDVDWSGFFSGLYRAGYDGSVIIEHEDRRFEGSDEQVKRGFLLARDVLRPYVK | not soluble
MEEKVYLDKLAKRDIKPTAIRLLILKSMMEAGRAVSQLDLETLLDTVDKSTISRTITLFLSHHLIHSIDDGSGSWKYAVCDDSCNCVLKDLHSHFYCEKCHRTFCLEKIHIPVIDLPKGFTLHSVNYVVKGVCAECSKV | not soluble
TEEDPSSGHGGVALESLSSFLAHSRRAGIYRLHLPDSVLSHFVRAALDYRERQVPFDFAFDSASDAELYCTELVAAALLRADSLLPIRPSISVAGRRVYSLDDLLLLPGTKCMALAN | not soluble
MLDLQGLEEIANVQMQLENIISKLNIPIIQKGVFDNEGYLKSIMRGMRDYICFKTSKKKYKTIKAQNVIIHPGSLISTDSVKYFVAGEIIETTKMYARSIGVLKKEWIDDIILNEEFKHNDISSKELEHHHHHH | not soluble
MSEAETGEPNGFRSCYDKLRKAVGNIPMDASKSTKLHNLSSRKISEILPNLYLSGRTVSQNSELLKEKNITTVINVSDREVVNYKNNQKFIKNYRFYAMSDTASAKFDGIIEEAVRIIHDSRSKEEGVLVHCFLGVSRSATLVAFYLISALSINWRDAVDFIHHRRFSANPNFGFLHQLKVYSTTKAKEFRNQLISERCLRMRESDKDIIKKYLPLAVFEL | not soluble
